Measurements as given in patent US20250019426A1 (UCT BIOSCIENCE, published 2025).

Experiments:
[1] = molecular target: T1, recombinant GRP78 protein (human, UniProt P11021 19-650, limits assumed); assay: Biacore SPR, multi-cycle kinetics, GRP78 amine-coupled to the chip, G2D03 as analyte 0.625-10 nM, 1:1 fit, kd/ka
T1 construct: also called HSPA5/GRP78 (Active Protein) Human Protein (ORIGENE, Cat. No. AR03021PU-L); glucose-regulated protein 78
Description: (§1) This ligand has the optimum pH 4.0 condition for direct immobilization by pH scouting test. With amine coupling method, carboxyl groups on the surface of the sensor chip surface are first activated with a mixture of EDC and NHS to give reactive succinimide esters. GRP78 is then passed over the surface and the esters react with primary amine groups to link the ligand covalently to the dextran matrix. The target level of the GRP78 protein is about 300 RU.
(§2) For the multi-cycle kinetics analysis, the chip surface level is 291.2 RU and the analyte concentration is used for the moderate Rₘₐₓ, which is running through the conditions in the assay. The concentrations of the anti-GRP78 antibody G2D03 are: 0.625 nM, 1.25 nM, 2.5 nM, 5 nM and 10 nM. Set the flow rate at 30 μL/min. Association time is 120 seconds. Dissociation time is 360 seconds. Regeneration buffer is performed using 10 mM glycine-HCl pH 1.7. […] The binding affinity of the anti-GRP78 antibody G2D03 is better than the conventional anti-GRP78 antibody C38.

[2] = molecular target: T1, recombinant GRP78 protein; assay: Biacore SPR, multi-cycle kinetics, GRP78 amine-coupled to the chip, G2D03 as analyte 0.625-10 nM, 1:1 fit
Description: as §1, §2

T1 sequence (P11021 19-650 limits assumed): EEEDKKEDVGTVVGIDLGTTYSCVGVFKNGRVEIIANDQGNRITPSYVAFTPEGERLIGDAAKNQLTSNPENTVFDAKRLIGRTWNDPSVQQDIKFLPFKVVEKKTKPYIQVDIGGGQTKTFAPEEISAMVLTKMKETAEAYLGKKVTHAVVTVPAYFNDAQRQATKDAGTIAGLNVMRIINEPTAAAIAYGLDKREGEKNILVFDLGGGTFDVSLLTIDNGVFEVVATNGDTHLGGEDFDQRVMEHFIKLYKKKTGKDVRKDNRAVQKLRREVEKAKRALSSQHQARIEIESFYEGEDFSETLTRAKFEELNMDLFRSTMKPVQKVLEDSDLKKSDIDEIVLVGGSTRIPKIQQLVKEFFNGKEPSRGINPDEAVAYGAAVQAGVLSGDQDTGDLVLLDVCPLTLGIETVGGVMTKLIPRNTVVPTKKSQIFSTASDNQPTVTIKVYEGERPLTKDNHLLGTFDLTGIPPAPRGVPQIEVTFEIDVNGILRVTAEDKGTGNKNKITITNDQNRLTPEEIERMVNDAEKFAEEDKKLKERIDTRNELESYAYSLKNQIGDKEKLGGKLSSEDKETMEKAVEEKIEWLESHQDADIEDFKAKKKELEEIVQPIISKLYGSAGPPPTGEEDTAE

B1: anti-GRP78 antibody G2D03 (antibody, V domains shown)
VH: EVQLVESGGGLVQPGGSLRLSCAASGFTFSQYAMAWVRQAPGKGLEWVSGISPYGSNTRYADSVKGRFTISRDNSKNTLYLQMNSLRAEDTAVYYCARNGGYSYTWFDLWGQGTLVTVSS
VL: DIQMTQSPSSLSASVGDRVTITCRASQSISSDLAWYQQKPGKAPKLLIYWASKLQSGVPSRFSGSGSGTDFTLTISSLQPEDFATYYCMQMYNTPPTFGQGTKVEIKR
notes: Detected with anti-human IgG; also called G2D03 mAb; anti-GRP78 monoclonal antibody (G2D03)
- Kd [1]: 74.4 pM
- koff [2]: 0.000254 s⁻¹
- kon [2]: 3.42e+06 M⁻¹ s⁻¹
